# Entries after “also recorded” stand apart in the source; their conditions may differ.
# T1: cell-membrane bound CD39 (Homo sapiens, UniProt P49961)
# T1 sequence (P49961 1-510): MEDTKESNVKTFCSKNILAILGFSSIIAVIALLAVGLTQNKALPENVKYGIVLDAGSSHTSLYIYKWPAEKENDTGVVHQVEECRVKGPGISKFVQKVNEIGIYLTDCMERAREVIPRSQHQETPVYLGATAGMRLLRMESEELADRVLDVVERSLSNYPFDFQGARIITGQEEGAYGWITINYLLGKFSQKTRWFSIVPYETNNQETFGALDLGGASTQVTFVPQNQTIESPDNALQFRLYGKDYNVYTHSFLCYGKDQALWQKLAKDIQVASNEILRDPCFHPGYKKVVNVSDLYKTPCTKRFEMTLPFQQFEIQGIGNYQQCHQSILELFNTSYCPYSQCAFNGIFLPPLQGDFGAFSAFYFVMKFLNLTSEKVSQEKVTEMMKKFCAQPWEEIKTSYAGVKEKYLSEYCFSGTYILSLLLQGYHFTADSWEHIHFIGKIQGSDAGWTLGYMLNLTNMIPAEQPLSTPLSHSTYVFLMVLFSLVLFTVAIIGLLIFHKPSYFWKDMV
# T2: human CD39 (Homo sapiens, UniProt P49961)
# T2 sequence (P49961 1-510): T1 sequence (P49961 1-510)
# T3: human CD39-expressing CHO cells (Homo sapiens, UniProt P49961)
# T3 construct: expressed in transfected cells; host or cells: CHO cells
# T3 sequence (P49961 1-510): T1 sequence (P49961 1-510)
# T4: human Ramos lymphoma cells (Homo sapiens, UniProt P49961)
# T4 construct: host or cells: Ramos human lymphoma cells
# T4 sequence (P49961 1-510): T1 sequence (P49961 1-510)
# T5: Human CD39-L3, also known as NTPDase3 or ENTPD3 (Homo sapiens, UniProt O75355)
# T5 sequence (O75355 1-529): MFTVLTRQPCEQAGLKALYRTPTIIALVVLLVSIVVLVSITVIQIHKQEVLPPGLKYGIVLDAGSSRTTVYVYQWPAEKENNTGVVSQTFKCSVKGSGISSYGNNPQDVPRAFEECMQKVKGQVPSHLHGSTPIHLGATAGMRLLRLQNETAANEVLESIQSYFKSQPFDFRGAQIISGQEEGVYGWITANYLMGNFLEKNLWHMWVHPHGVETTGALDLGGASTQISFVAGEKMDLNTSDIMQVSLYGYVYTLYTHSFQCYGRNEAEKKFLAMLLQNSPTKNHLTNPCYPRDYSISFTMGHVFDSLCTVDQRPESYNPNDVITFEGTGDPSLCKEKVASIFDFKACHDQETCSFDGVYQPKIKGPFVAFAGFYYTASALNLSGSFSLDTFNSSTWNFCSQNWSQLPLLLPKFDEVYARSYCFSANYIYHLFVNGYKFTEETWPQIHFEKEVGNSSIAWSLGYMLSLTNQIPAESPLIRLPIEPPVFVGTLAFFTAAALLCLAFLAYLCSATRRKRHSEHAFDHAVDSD
# T6: CD39 expressed by Ramos human lymphoma cells (Homo sapiens, UniProt P49961)
# T6 construct: host or cells: Ramos human lymphoma cells
# T6 sequence (P49961 1-510): T1 sequence (P49961 1-510)
# B1: I-394: anti-CD39 antibody, VH SEQ ID NO: 3, VL SEQ ID NO: 4; heavy and light chains SEQ ID NOS: 37 and 38 (antibody)
# heavy: EVQLQQSGPELVKPGASVKMSCKASGYTFTDYNMHWVKQSHGRTLEWIGYIVPLNGGSTFNQKFKGRATLTVNTSSRTAYMELRSLTSEDSAAYYCARGGTRFAYWGQGTLVTVSAASTKGPSVFPLAPSSKSTSGGTAALGCLVKDYFPEPVTVSWNSGALTSGVHTFPAVLQSSGLYSLSSVVTVPSSSLGTQTYICNVNHKPSNTKVDKRVEPKSCDKTHTCPPCPAPEAEGAPSVFLFPPKPKDTLMISRTPEVTCVVVDVSHEDPEVKFNWYVDGVEVHNAKTKPREEQYNSTYRVVSVLTVLHQDWLNGKEYKCKVSNKALPSSIEKTISKAKGQPREPQVYTLPPSREEMTKNQVSLTCLVKGFYPSDIAVEWESNGQPENNYKTTPPVLDSDGSFFLYSKLTVDKSRWQQGNVFSCSVMHEALHNHYTQKSLSLSPGK
# light: DIVLTQSPASLAVSLGQRATISCRASESVDNFGVSFMYWFQQKPGQPPNLLIYGASNQGSGVPARFRGSGSGTDFSLNIHPMEADDTAMYFCQQTKEVPYTFGGGTKLEIKRTVAAPSVFIFPPSDEQLKSGTASVVCLLNNFYPREAKVQWKVDNALQSGNSQESVTEQDSKDSTYSLSSTLTLSKADYEKHKVYACEVTHQGLSSPVTKSFNRGEC
# modifications: Chimeric homo sapiens mus musculus
# Legend:
# [1] = molecular target: T1, cell-membrane bound CD39; experiment: Inhibition of the enzymatic activity of cellular CD39 (cells not specified); format: cell-based
# Procedure: The inhibition of the CD39 enzymatic activity in CD39-expressing cells by antibodies was evaluated using Cell Titer Glo™ (Promega, reference G7571) that allows assessment of ATP hydrolysis through use of a reagent that generates a luminescent signal proportional to the amount of ATP present. The assay was thus designed to permit assessment of the inhibition of ATP hydrolyzed by CD39 in the cell culture supernatant. Briefly, 5×10^4 Ramos human lymphoma cells, 5×10^3 human CD39-, cynomolgus CD39- and mouse CD39-expressing CHO cells, were incubated 1 hour at 37° C. with anti-CD39 antibodies from 30 μg/ml to 5×10^−4 μg/ml. Cells were then incubated with 20 μM ATP for 1 additional hour at 37° C. Plates were centrifuged for 2 min at 400 g and 50 μl cell supernatant are transferred in a luminescence microplate (white wells). 50 μl CellTiter-Glo® Reagent (CTG) was added to the supernatant and emitted light was quantified after a 5 min incubation in the dark using a Enspire™ luminometer. Anti-CD39 antibody efficacy was determined by comparing emitted light in presence of antibody with ATP alone (maximal light emission) and ATP together with cells (minimal light emission). […]
# [2] = system: CHO cells expressing cynomolgus (macaca fascicularis) CD39; experiment: Antibody titration by flow cytometry on CHO-cyCD39; format: binding
# Procedure: (§1) Cells were incubated with various concentration of unlabeled anti-CD39 antibody from 30 μg/ml to 5×10^−4 μg/ml, for 30 minutes at 4° C. After washes, cells were incubated with Goat anti-mouse H+L labeled secondary antibody for 30 min at 4° C.
# [3] = molecular target: T2, human CD39; experiment: ELISA titration on human CD39; format: binding; conditions: coated recombinant protein, OD=450
# Procedure: (§2) Wells were washed in TBS Tween 20, and further saturated 2H at RT in TBS Blocking buffer. Dose range concentration of primary antibody was incubated in TBS blocking buffer for 2 h at RT. Wells were washed in TBS Tween 20. […] Optical density was measured on Enspire™ at OD=450.
# [4] = system: monocyte-derived DC (moDC); experiment: Activation of monocyte-derived dendritic cells in presence of ATP; format: cell-based, human; conditions: ATP at 0.125 mM, 0.25 mM or 0.5 mM, 24 hours; I-394 shown at 10 μg/ml
# Procedure: While ATP has pro-inflammatory activity, CD39-mediated catabolism of ATP is believed to be able to impair dendritic cell (DC) activation, in turn altering a broader adaptive immune response against tumor antigen. In order to evaluate whether CD39 blockade using anti-CD39 antibodies could overcome CD39-mediated alteration of dendritic cell (DC) activation in the presence of ATP, we incubated monocyte-derived DC (moDC) with anti-CD39 antibodies in the presence of ATP.
# Briefly, human monocytes were purified from human healthy blood and differentiated into MoDC in presence of GM-CSF and IL-4 during 6 days. […] LPS (Invivogen, 10 ng/ml) was used as positive control. To assess resulting effect of ATP-mediated DC activation on CD4 T cells activation, ATP-activated DC were washed and then incubated with allogenic CD4 T cells (ratio 1 MoDC/4 T cells) for a mixed lymphocytes reaction (MLR) during 5 days. T cells activation and proliferation were analyzed through CD25 expression and Cell Trace Violet dilution by flow cytometry (FIG. 8).
# [5] = molecular target: T3, human CD39-expressing CHO cells; experiment: Inhibition of the enzymatic activity of cellular CD39, CHO-huCD39 cells; format: cell-based; conditions: result in words
# Procedure: (§3) The inhibition of the CD39 enzymatic activity in CD39-expressing cells by antibodies was evaluated using Cell Titer Glo™ (Promega, reference G7571) that allows assessment of ATP hydrolysis through use of a reagent that generates a luminescent signal proportional to the amount of ATP present. The assay was thus designed to permit assessment of the inhibition of ATP hydrolyzed by CD39 in the cell culture supernatant. Briefly, 5×10^4 Ramos human lymphoma cells, 5×10^3 human CD39-, cynomolgus CD39- and mouse CD39-expressing CHO cells, were incubated 1 hour at 37° C. with anti-CD39 antibodies from 30 μg/ml to 5×10^−4 μg/ml. Cells were then incubated with 20 μM ATP for 1 additional hour at 37° C. Plates were centrifuged for 2 min at 400 g and 50 μl cell supernatant are transferred in a luminescence microplate (white wells). 50 μl CellTiter-Glo® Reagent (CTG) was added to the supernatant and emitted light was quantified after a 5 min incubation in the dark using a Enspire™ luminometer. Anti-CD39 antibody efficacy was determined by comparing emitted light in presence of antibody with ATP alone (maximal light emission) and ATP together with cells (minimal light emission).
# [6] = system: cynomolgus CD39-expressing CHO cells; experiment: Inhibition of the enzymatic activity of cellular CD39, CHO-cyCD39 cells; format: cell-based; conditions: result in words
# Procedure: as §3
# [7] = molecular target: T4, human Ramos lymphoma cells; experiment: Antibody titration by flow cytometry on Ramos cells; format: binding
# Procedure: as §1
# [8] = molecular target: T5, Human CD39-L3, also known as NTPDase3 or ENTPD3; experiment: ELISA titration on CD39-L3; format: binding; conditions: coated recombinant protein, OD=450
# Procedure: as §2
# [9] = molecular target: T6, CD39 expressed by Ramos human lymphoma cells; experiment: Inhibition of the enzymatic activity of cellular CD39, Ramos cells (Cell Titer Glo); format: cell-based
# Procedure: as §3
molecule,measurement,setting,value
B1,"potency and maximal inhibition of cellular CD39, comparison between antibodies (FIG. 2A)",[1]; compared with BY40,greater potency and maximal inhibition of cellular CD39 compared to BY40; also recorded: greater potency at all concentrations as well as greater maximal inhibition of cellular CD39 compared to BY40
same,inhibition of cell-membrane bound (cellular) CD39 ATPase activity,[1]; result in words,inhibit cell-membrane bound CD39
same,binding to cells expressing cynomolgus CD39 (CHO-cyCD39),[2],bound; also recorded: binds
same,binding to human CD39 in ELISA,[3],bound; also recorded: binds to human CD39
same,moDC activation as assessed by HLA-DR or CD83 expression,[4],permitted moDC activation; also recorded: lead to moDC activation
same,blocking CD39 enzymatic activity in cells expressing human CD39 (CHO-huCD39),[5],blocks CD39 enzymatic activity; also recorded: highly potent at blocking CD39 enzymatic activity
same,blocking CD39 enzymatic activity in cells expressing cynomolgus CD39 (CHO-cyCD39),[6],blocks CD39 enzymatic activity; also recorded: highly potent at blocking CD39 enzymatic activity
same,binding to Ramos lymphoma cells,[7],bound; also recorded: binds
same,binding to CD39-L3 in ELISA,[8],not to any of the human isoforms
same,"maximum inhibition achieved, cellular CD39","[9]; Ramos cells, 20 μM ATP",81.6%
same,blocking CD39 enzymatic activity in tumor (Ramos) cells,[9]; result in words,highly potent at blocking CD39 enzymatic activity
